# In paper PMC11341690:
# T1: PglX NTD (Salmonella D23580 (S. Typhimurium), UniProt A0A6C7IK61 1-661)
# T1 sequence: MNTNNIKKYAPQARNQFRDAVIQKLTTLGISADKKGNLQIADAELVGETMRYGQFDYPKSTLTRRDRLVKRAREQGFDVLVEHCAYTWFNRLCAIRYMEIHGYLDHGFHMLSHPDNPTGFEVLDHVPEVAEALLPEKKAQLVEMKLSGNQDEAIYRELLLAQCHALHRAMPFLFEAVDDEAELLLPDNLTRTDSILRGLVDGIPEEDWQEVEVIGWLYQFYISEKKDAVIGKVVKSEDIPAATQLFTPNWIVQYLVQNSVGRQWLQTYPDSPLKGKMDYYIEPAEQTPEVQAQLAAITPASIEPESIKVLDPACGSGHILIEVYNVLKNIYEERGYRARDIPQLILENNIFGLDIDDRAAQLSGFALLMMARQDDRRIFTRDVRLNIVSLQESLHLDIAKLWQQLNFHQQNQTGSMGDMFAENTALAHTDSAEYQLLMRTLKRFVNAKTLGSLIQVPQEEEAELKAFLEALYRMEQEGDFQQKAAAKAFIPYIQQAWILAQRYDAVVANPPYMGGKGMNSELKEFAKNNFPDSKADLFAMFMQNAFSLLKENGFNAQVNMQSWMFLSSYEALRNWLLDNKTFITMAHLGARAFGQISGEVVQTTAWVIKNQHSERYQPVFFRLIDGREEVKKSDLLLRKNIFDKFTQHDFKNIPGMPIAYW
# T2: PglX WT (Salmonella D23580 (S. Typhimurium), UniProt A0A6C7IK61 1-1225)
# T2 sequence: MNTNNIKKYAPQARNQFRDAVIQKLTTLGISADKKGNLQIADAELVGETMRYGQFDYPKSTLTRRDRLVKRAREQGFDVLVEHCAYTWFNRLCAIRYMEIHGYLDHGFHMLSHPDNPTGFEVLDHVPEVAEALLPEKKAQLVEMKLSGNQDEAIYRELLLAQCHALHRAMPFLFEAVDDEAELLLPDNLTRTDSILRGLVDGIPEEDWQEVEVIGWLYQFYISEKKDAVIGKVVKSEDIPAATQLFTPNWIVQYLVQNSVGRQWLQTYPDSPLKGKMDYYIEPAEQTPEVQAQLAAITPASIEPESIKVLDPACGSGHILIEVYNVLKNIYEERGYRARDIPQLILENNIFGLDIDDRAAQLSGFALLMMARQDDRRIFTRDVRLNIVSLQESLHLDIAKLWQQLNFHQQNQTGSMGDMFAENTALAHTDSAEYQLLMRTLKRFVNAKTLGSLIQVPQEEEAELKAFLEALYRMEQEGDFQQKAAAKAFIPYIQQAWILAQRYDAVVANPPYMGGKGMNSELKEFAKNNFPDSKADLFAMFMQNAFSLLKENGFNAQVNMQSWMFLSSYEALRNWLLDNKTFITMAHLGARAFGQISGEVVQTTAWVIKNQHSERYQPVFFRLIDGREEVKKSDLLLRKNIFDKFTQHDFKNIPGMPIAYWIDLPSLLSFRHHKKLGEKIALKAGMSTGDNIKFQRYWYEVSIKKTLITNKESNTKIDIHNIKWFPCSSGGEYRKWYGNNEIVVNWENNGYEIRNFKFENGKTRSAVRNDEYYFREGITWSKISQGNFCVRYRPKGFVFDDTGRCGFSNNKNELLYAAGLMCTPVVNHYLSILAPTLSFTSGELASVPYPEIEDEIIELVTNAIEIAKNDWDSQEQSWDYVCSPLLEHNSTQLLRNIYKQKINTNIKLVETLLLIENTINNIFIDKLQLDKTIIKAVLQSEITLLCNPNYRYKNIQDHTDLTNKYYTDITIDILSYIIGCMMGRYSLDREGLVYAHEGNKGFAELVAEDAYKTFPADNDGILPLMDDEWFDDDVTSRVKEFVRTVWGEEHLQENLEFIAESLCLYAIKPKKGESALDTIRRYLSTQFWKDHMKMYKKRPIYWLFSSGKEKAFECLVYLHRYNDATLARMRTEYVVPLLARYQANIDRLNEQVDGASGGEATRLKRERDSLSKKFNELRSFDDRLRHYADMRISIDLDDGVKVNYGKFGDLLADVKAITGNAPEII
# What was measured:
# [1] = target: PglX (Salmonella enterica serovar Typhimurium ST313 strain D23580 BREX methyltransferase), wild type (Salmonella enterica serovar Typhimurium ST313 strain D23580); test: mass photometry; PglX proteins with equimolar Ocr; TwoMP (Refeyn); 1 uM for 1 h on ice in 10 mM Tris pH 7.9, 25 mM NaCl, 0.5 uM SAM, 0.5 uM MgCl2, then diluted to 5 nM
# [2] = target: T3, PglX (PglX-SAM) (Salmonella enterica, UniProt A0A6C7IK61); details: PglX incubated with 1 mM SAM before crystallisation; methyltransferase pocket between GSG and NPPY motifs; no DNA
# T3 construct: gene STMMW_44401
# [3] = target: T4, PglX-SAM:Ocr complex (Salmonella enterica, UniProt A0A6C7IK61); details: PglX incubated with 1 mM SAM, then Ocr, before crystallisation; same methyltransferase pocket
# T4 construct: gene STMMW_44401
# [4] = target: T1, PglX NTD; test: mass photometry; NTD peak may include free DNA; mass photometry (Refeyn); buffer, salt, pH and temperature not given in the material; details: protein: recombinant; tags: untagged (His/SUMO tag removed by hSENP2); blunt
# [5] = target: T2, PglX WT; test: mass photometry; 1:1 and 2:1 complexes; mass photometry (Refeyn); buffer, salt, pH and temperature not given in the material; details: protein: recombinant; tags: untagged (His/SUMO tag removed by hSENP2); blunt
# [6] = target: T2, PglX WT; test: mass photometry; 1:1, 2:1 and 3:1 complexes; non-specific; mass photometry (Refeyn); buffer, salt, pH and temperature not given in the material; details: protein: recombinant; tags: untagged (His/SUMO tag removed by hSENP2); blunt
# [7] = target: T2, PglX WT; test: mass photometry; 1:1, 2:1 and 3:1 complexes; mass photometry (Refeyn); buffer, salt, pH and temperature not given in the material; details: protein: recombinant; tags: untagged (His/SUMO tag removed by hSENP2); blunt
Molecule,binding result [4],binding result [5],further results
"Ocr from phage T7 (DNA mimic, anti-restriction and anti-BREX protein) (from UniProt P03775 1-117) (natural protein)",–,–,stoichiometry N (Ocr per PglX (1:2 PglX WT:Ocr)) [1]: 2; stoichiometry N (Ocr per PglX (2:2 PglX WT:Ocr)) [1]: 1
"C[S+](CC[C@H](N)C(=O)O)C[C@H]1O[C@@H](n2cnc3c(N)ncnc32)[C@H](O)[C@@H]1O (stereo partly drawn) [SAM, S-adenosyl-L-methionine]",–,–,"X-ray crystal structure, 3.5 A [2]: crystallographic structure of Salmonella PglX bound to S-adenosyl-L-methionine (SAM), a co-factor for methylation; X-ray crystal structure, 3.5 A [3]: visible in the PglX-SAM:Ocr structure is a bound SAM molecule"
DNA 1 (TRB2180/TRB2181) (dsDNA) DNA 1: GGTATCCGTTCGTCATAGGCTCAAAGCGTCTCCTGAGTCTCGGATCAGTACGAACTACCGGAACCAACACGACTGATCGTCTTCGGTGACCATTGCAACACTAGTATCTCGAGTGCCGTG DNA 2: CACGGCACTCGAGATACTAGTGTTGCAATGGTCACCGAAGACGATCAGTCGTGTTGGTTCCGGTAGTTCGTACTGATCCGAGACTCAGGAGACGCTTTGAGCCTATGACGAACGGATACC,no binding,binds,–
DNA 4 (TRB2186/TRB2187) (dsDNA) DNA 1: GGTATCCGTTCGTCATAGGCTCAAAGCGTCTCCTGAGTCTCGTGTACCTACGAACTACCGGAACCAACACGACAATACGTCTTCGGTGACCATTGCAACACTAGTATCTCGAGTGCCGTG DNA 2: CACGGCACTCGAGATACTAGTGTTGCAATGGTCACCGAAGACGTATTGTCGTGTTGGTTCCGGTAGTTCGTAGGTACACGAGACTCAGGAGACGCTTTGAGCCTATGACGAACGGATACC,no binding,–,binding result [6]: binds
DNA 3 (TRB2184/TRB2185) (dsDNA) DNA 1: GGTATCCGTTCGTCATAGGCTCAAAGCGTCTCCTGAGTCTCGGATCAGTACGAACTACCGGAACCAACACGACAATACGTCTTCGGTGACCATTGCAACACTAGTATCTCGAGTGCCGTG DNA 2: CACGGCACTCGAGATACTAGTGTTGCAATGGTCACCGAAGACGTATTGTCGTGTTGGTTCCGGTAGTTCGTACTGATCCGAGACTCAGGAGACGCTTTGAGCCTATGACGAACGGATACC,no binding,–,binding result [7]: binds
DNA 2 (TRB2182/TRB2183) (dsDNA) DNA 1: GGTATCCGTTCGTCATAGGCTCAAAGCGTCTCCTGAGTCTCGGATCAGTACGAACTACCGGAACCAACACGAGATCAGGTCTTCGGTGACCATTGCAACACTAGTATCTCGAGTGCCGTG DNA 2: CACGGCACTCGAGATACTAGTGTTGCAATGGTCACCGAAGACCTGATCTCGTGTTGGTTCCGGTAGTTCGTACTGATCCGAGACTCAGGAGACGCTTTGAGCCTATGACGAACGGATACC,no binding,binds,–
